# Measured values published in publication PMC11754109 (Nature, 2025).
# B1: FeSII protein (Shethna protein II) of Azotobacter vinelandii (natural protein)
# chain: MATIYFSSPLMPHNKKVQAVAGKRSTLLGVAQENGVKIPFECQDGNCGSCLVKITHLDGERIKGMLLTDKERNVLKSVGKLPKSEEERAAVRDLPPTYRLACQTIVTDEDLLVEFTGEPGGA
# Experiments:
# [1] = target: Fe protein NifH2 of Mo-nitrogenase (Azotobacter vinelandii); assay: SEC-MALS
# SEC-MALS = target: the molecule itself; assay: SEC-MALS
Molecule,stoichiometry N (chains per oligomer) [1],stoichiometry N (NifH2 dimers per FeSII2 dimer) [1],stoichiometry N (SEC-MALS)
Fe protein NifH2 of Mo-nitrogenase (natural protein),2,–,–
B1,–,1,2 chains per oligomer
